The target of the assay is T1, Aβ1-42 monomers versus Aβ1-42 oligomers and fibrils (biotinylated, D-enantiomeric, immobilized) (Homo sapiens, UniProt P05067).
T1 construct: biotinylated, D-enantiomeric Aβ1-42 monomers
Kind of assay: Monoclonal phage ELISA. The following applies: individual phage clones; species immobilized at 320 nM; absorption at 450 nm normalized with 6E10 control; higher = more monomer-specific. It is filed as binding. The source says:
The specificity of the peptide results from the difference in % of the absorption values for the target molecule or the bait (for example A beta monomer) and the normalized absorption values for the competitors (for example A beta oligomers and fibrils) in the monoclonal phage ELISA.
The absorption values then constitute the affinity of individual phage clones for a particular immobilized A beta species. Here, the specificity is not dependent on the strength of the affinity, but instead only on the difference of the affinities between the species. […] The terms “competitors” and “target molecule” or “bait” are defined as specified below.
A method for normalizing the obtained values should therefore be performed. From all absorption values of the individual phage clone in the monoclonal phage ELISA, the values of the phage antibodies tested for cross-reaction can be used as background. This occurs in accordance with the previously immobilized species. The signal values of the phage antibody from the reaction trays with immobilized Aβ1-42 oligomers for this purpose can be removed from the signal values of the individual phage clone from the reaction trays with immobilized Aβ1-42 oligomers. A similar process is then carried out for Aβ1-42 monomers. In this way, a possible background signal of the phage antibody can initially be calculated from the signals of the individual phage clone. […] Only in this way is an equal interpretation of the results particularly in respect of the assessment of the specificity of the individual phage clone possible (see FIG. 2).
The affinity of individual phage clones with respect to the target molecule and the competitors was examined by means of ELISA. For this purpose, all three species were immobilized in biotinylated form on a polystyrene surface at streptavidin bound thereon. Since, during the panning rounds, oligomers and fibrils were added at the same time as competitors, these two species were immobilized in the monoclonal phage ELISA, likewise mixed. […] The streptavidin-coated microtiter plates were pre-washed as specified by the manufacturer. […] For immobilization, 100 μl were used per reaction tray and were incubated for 15 minutes at room temperature. After having washed the entire plate(s) twice with 150 μl 1×TBS per reaction tray, a blocking step with 150 μl 1×TBS/0.1% (v/v) Tween-20/1% (w/v) BSA was performed for an hour at room temperature. Three washing steps with 150 μl 1×TBS/0.1% (v/v) Tween-20 then followed per reaction tray. The amplified individual phage clones were mixed 1:1 with 1× TBS/1% (w/v) BSA. The antibody 6E10 was diluted 1:10,000 in 1×TBS/0.1% (v/v) Tween-20. […] After washing five times with 150 μl 1×TBS/0.1% (v/v) Tween-20 per reaction tray, 200 μl 1×TBS/0.1% (v/v) Tween-20 were placed in each reaction tray, and the plate(s) incubated for one hour at room temperature. The solutions were removed and replaced as follows: In all reaction trays that had been incubated previously with individual phage clone dilutions or the batch without phages, 100 μl of a phage antibody diluted 1:5,000 in 1×TBS/0.1% (v/v) Tween-20 were now added. The enzyme horseradish peroxidase (HRP) was coupled to this antibody and later served for the conversion of a substrate (TMB). […] At the same time, 100 μl of a second antibody diluted 1:1,000 in 1×TBS/0.1% (v/v) Tween-20 were now added to all reaction trays that had been previously incubated with the dilution of the 6E10 antibody, said second antibody being able to identify and bind to the 6E10 antibody originating from mice. This antibody is also HRP-coupled and thus allows a quantification of the binding of the first antibody to the immobilized target molecules or the plastics surface of the reaction tray. After one hour of incubation at room temperature, the plate(s) was/were washed 10 times with 150 μl 1×TBS/0.1% (v/v) Tween-20 per reaction tray. The signal was detected by adding the substrate 3,3′,5,5′-tetramethylbenzidine (TMB). […]
(An ELISA detects its analyte on a solid surface through an enzyme-linked reagent.)

Square brackets hold non-standard residues; d marks the D form.

T1 sequence (P05067 672-713): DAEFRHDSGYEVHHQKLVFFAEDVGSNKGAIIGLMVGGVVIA

“DLRFSSLWKLSH (H-[dD][dL][dR][dF][dS][dS][dL][dW][dK][dL][dS][dH]-NH2; SMILES CC(C)C[C@@H](NC(=O)[C@H](N)CC(=O)O)C(=O)N[C@H](CCCNC(=N)N)C(=O)N[C@H](Cc1ccccc1)C(=O)N[C@H](CO)C(=O)N[C@H](CO)C(=O)N[C@H](CC(C)C)C(=O)N[C@H](Cc1c[nH]c2ccccc12)C(=O)N[C@H](CCCCN)C(=O)N[C@H](CC(C)C)C(=O)N[C@H](CO)C(=O)N[C@H](Cc1c[nH]cn1)C(N)=O) [Mosd19]”: the “Difference in signal strength between Aβ1-42 monomers (100%) and Aβ1-42 oligomers and fibrils” value was found to be 50.299%.

As for “DRSKGDHRITQM (H-[dD][dR][dS][dK]G[dD][dH][dR][dI][dT][dQ][dM]-NH2; SMILES CC[C@@H](C)[C@@H](NC(=O)[C@@H](CCCNC(=N)N)NC(=O)[C@@H](Cc1c[nH]cn1)NC(=O)[C@@H](CC(=O)O)NC(=O)CNC(=O)[C@@H](CCCCN)NC(=O)[C@@H](CO)NC(=O)[C@@H](CCCNC(=N)N)NC(=O)[C@H](N)CC(=O)O)C(=O)N[C@@H](C(=O)N[C@H](CCC(N)=O)C(=O)N[C@H](CCSC)C(N)=O)[C@H](C)O) [Mosd18]”, the “Difference in signal strength between Aβ1-42 monomers (100%) and Aβ1-42 oligomers and fibrils” value amounted to 49.181%.

In the case of “DWSSRVYRDPQT (H-[dD][dW][dS][dS][dR][dV][dY][dR][dD][dP][dQ][dT]-NH2; SMILES CC(C)[C@@H](NC(=O)[C@@H](CCCNC(=N)N)NC(=O)[C@@H](CO)NC(=O)[C@@H](CO)NC(=O)[C@@H](Cc1c[nH]c2ccccc12)NC(=O)[C@H](N)CC(=O)O)C(=O)N[C@H](Cc1ccc(O)cc1)C(=O)N[C@H](CCCNC(=N)N)C(=O)N[C@H](CC(=O)O)C(=O)N1CCC[C@@H]1C(=O)N[C@H](CCC(N)=O)C(=O)N[C@@H](C(N)=O)[C@H](C)O) [Mosd16]”, the “Difference in signal strength between Aβ1-42 monomers (100%) and Aβ1-42 oligomers and fibrils” value is reported as 52.387%.

With “EHWDFGQWWQQS (H-[dE][dH][dW][dD][dF]G[dQ][dW][dW][dQ][dQ][dS]-NH2; SMILES NC(=O)CC[C@@H](NC(=O)CNC(=O)[C@@H](Cc1ccccc1)NC(=O)[C@@H](CC(=O)O)NC(=O)[C@@H](Cc1c[nH]c2ccccc12)NC(=O)[C@@H](Cc1c[nH]cn1)NC(=O)[C@H](N)CCC(=O)O)C(=O)N[C@H](Cc1c[nH]c2ccccc12)C(=O)N[C@H](Cc1c[nH]c2ccccc12)C(=O)N[C@H](CCC(N)=O)C(=O)N[C@H](CCC(N)=O)C(=O)N[C@H](CO)C(N)=O) [Mosd14]”, the “Difference in signal strength between Aβ1-42 monomers (100%) and Aβ1-42 oligomers and fibrils” value came out at 56.526%.

Regarding “ERSQWGHRDPQS (H-[dE][dR][dS][dQ][dW]G[dH][dR][dD][dP][dQ][dS]-NH2; SMILES N=C(N)NCCC[C@@H](NC(=O)[C@H](N)CCC(=O)O)C(=O)N[C@H](CO)C(=O)N[C@H](CCC(N)=O)C(=O)N[C@H](Cc1c[nH]c2ccccc12)C(=O)NCC(=O)N[C@H](Cc1c[nH]cn1)C(=O)N[C@H](CCCNC(=N)N)C(=O)N[C@H](CC(=O)O)C(=O)N1CCC[C@@H]1C(=O)N[C@H](CCC(N)=O)C(=O)N[C@H](CO)C(N)=O) [Mosd17]”, the “Difference in signal strength between Aβ1-42 monomers (100%) and Aβ1-42 oligomers and fibrils” value worked out at 54.492%.

As to “FSHSHHTWFTWN (H-[dF][dS][dH][dS][dH][dH][dT][dW][dF][dT][dW][dN]-NH2; SMILES C[C@H](O)[C@@H](NC(=O)[C@@H](Cc1ccccc1)NC(=O)[C@@H](Cc1c[nH]c2ccccc12)NC(=O)[C@H](NC(=O)[C@@H](Cc1c[nH]cn1)NC(=O)[C@@H](Cc1c[nH]cn1)NC(=O)[C@@H](CO)NC(=O)[C@@H](Cc1c[nH]cn1)NC(=O)[C@@H](CO)NC(=O)[C@H](N)Cc1ccccc1)[C@H](C)O)C(=O)N[C@H](Cc1c[nH]c2ccccc12)C(=O)N[C@H](CC(N)=O)C(N)=O) [Mosd7]”, the “Difference in signal strength between Aβ1-42 monomers (100%) and Aβ1-42 oligomers and fibrils” value is recorded as 57.960%.

In the case of “FSWSMVMPWPTA (H-[dF][dS][dW][dS][dM][dV][dM][dP][dW][dP][dT][dA]-NH2; SMILES CSCC[C@@H](NC(=O)[C@@H](CO)NC(=O)[C@@H](Cc1c[nH]c2ccccc12)NC(=O)[C@@H](CO)NC(=O)[C@H](N)Cc1ccccc1)C(=O)N[C@@H](C(=O)N[C@H](CCSC)C(=O)N1CCC[C@@H]1C(=O)N[C@H](Cc1c[nH]c2ccccc12)C(=O)N1CCC[C@@H]1C(=O)N[C@@H](C(=O)N[C@H](C)C(N)=O)[C@H](C)O)C(C)C) [Mosd21]”, the “Difference in signal strength between Aβ1-42 monomers (100%) and Aβ1-42 oligomers and fibrils” value was determined as 46.030%.

“GQWDFRQWWQPC (H-G[dQ][dW][dD][dF][dR][dQ][dW][dW][dQ][dP][dC]-NH2; SMILES N=C(N)NCCC[C@@H](NC(=O)[C@@H](Cc1ccccc1)NC(=O)[C@@H](CC(=O)O)NC(=O)[C@@H](Cc1c[nH]c2ccccc12)NC(=O)[C@@H](CCC(N)=O)NC(=O)CN)C(=O)N[C@H](CCC(N)=O)C(=O)N[C@H](Cc1c[nH]c2ccccc12)C(=O)N[C@H](Cc1c[nH]c2ccccc12)C(=O)N[C@H](CCC(N)=O)C(=O)N1CCC[C@@H]1C(=O)N[C@H](CS)C(N)=O) [Mosd15]”: the “Difference in signal strength between Aβ1-42 monomers (100%) and Aβ1-42 oligomers and fibrils” value was found to be 59.985%.

In the case of “HFWSWTSLSMTR (H-[dH][dF][dW][dS][dW][dT][dS][dL][dS][dM][dT][dR]-NH2; SMILES CSCC[C@@H](NC(=O)[C@@H](CO)NC(=O)[C@@H](CC(C)C)NC(=O)[C@@H](CO)NC(=O)[C@H](NC(=O)[C@@H](Cc1c[nH]c2ccccc12)NC(=O)[C@@H](CO)NC(=O)[C@@H](Cc1c[nH]c2ccccc12)NC(=O)[C@@H](Cc1ccccc1)NC(=O)[C@H](N)Cc1c[nH]cn1)[C@H](C)O)C(=O)N[C@@H](C(=O)N[C@H](CCCNC(=N)N)C(N)=O)[C@H](C)O) [Mosd8]”, the “Difference in signal strength between Aβ1-42 monomers (100%) and Aβ1-42 oligomers and fibrils” value was 68.616%.

“HLSWYWEKYLTS (H-[dH][dL][dS][dW][dY][dW][dE][dK][dY][dL][dT][dS]-NH2; SMILES CC(C)C[C@@H](NC(=O)[C@H](N)Cc1c[nH]cn1)C(=O)N[C@H](CO)C(=O)N[C@H](Cc1c[nH]c2ccccc12)C(=O)N[C@H](Cc1ccc(O)cc1)C(=O)N[C@H](Cc1c[nH]c2ccccc12)C(=O)N[C@H](CCC(=O)O)C(=O)N[C@H](CCCCN)C(=O)N[C@H](Cc1ccc(O)cc1)C(=O)N[C@H](CC(C)C)C(=O)N[C@@H](C(=O)N[C@H](CO)C(N)=O)[C@H](C)O) [Mosd9]”: the “Difference in signal strength between Aβ1-42 monomers (100%) and Aβ1-42 oligomers and fibrils” value is 68.016%.

For the sequence “HNWSWEWWYNPN (H-[dH][dN][dW][dS][dW][dE][dW][dW][dY][dN][dP][dN]-NH2; SMILES NC(=O)C[C@@H](NC(=O)[C@H]1CCCN1C(=O)[C@@H](CC(N)=O)NC(=O)[C@@H](Cc1ccc(O)cc1)NC(=O)[C@@H](Cc1c[nH]c2ccccc12)NC(=O)[C@@H](Cc1c[nH]c2ccccc12)NC(=O)[C@@H](CCC(=O)O)NC(=O)[C@@H](Cc1c[nH]c2ccccc12)NC(=O)[C@@H](CO)NC(=O)[C@@H](Cc1c[nH]c2ccccc12)NC(=O)[C@@H](CC(N)=O)NC(=O)[C@H](N)Cc1c[nH]cn1)C(N)=O) [Mosd5]”, the “Difference in signal strength between Aβ1-42 monomers (100%) and Aβ1-42 oligomers and fibrils” value is given as 62.729%.

Consider “HTWTHWFSWNVP (H-[dH][dT][dW][dT][dH][dW][dF][dS][dW][dN][dV][dP]-NH2; SMILES CC(C)[C@@H](NC(=O)[C@@H](CC(N)=O)NC(=O)[C@@H](Cc1c[nH]c2ccccc12)NC(=O)[C@@H](CO)NC(=O)[C@@H](Cc1ccccc1)NC(=O)[C@@H](Cc1c[nH]c2ccccc12)NC(=O)[C@@H](Cc1c[nH]cn1)NC(=O)[C@H](NC(=O)[C@@H](Cc1c[nH]c2ccccc12)NC(=O)[C@H](NC(=O)[C@H](N)Cc1c[nH]cn1)[C@H](C)O)[C@H](C)O)C(=O)N1CCC[C@@H]1C(N)=O) [Mosd10]”, for which the “Difference in signal strength between Aβ1-42 monomers (100%) and Aβ1-42 oligomers and fibrils” value was determined as 71.902%.

The record behind these values is patent US10239923B2, “Specific amyloid beta binding peptides and the use of same for treating and diagnosing alzheimer's dementia” (Forschungszentrum Juelich GmbH, priority 2015, dated 2019).
